For experiment [1], the target named is kindlin-2 (endogenous, fibroblasts) [mouse (endogenous in talin^1/2dko fibroblasts)]. As to the kind of experiment: anti-GFP immunoprecipitation, western blot quantification. To be noted: talin1/2dKO fibroblasts, N = 3; parent: 1; read off a plot.
The target of experiment [2] is constitutively activated full-length talin mutant tlnM3 (M319A, T1767L, E1770K) (mouse) (UniProt P26039). As to the kind of experiment: SPR; tlnM3 amine-coupled to CM5, tlnM3 flowed over; 150 mM salt, pH 6.8, 25 °C; intermolecular tlnM3/tlnM3 interaction (dimerization).
The target in experiment [3] is GST-integrin beta3 cytoplasmic tail (UniProt P05106). As to the kind of experiment: SPR; GST-integrin beta3CT amine-coupled to CM5, talinH or tlnM3 (0–125 nM) flowed over; 50 mM sodium phosphate pH 6.8, 150 mM NaCl, 0.05% Tween 20, 0.03% BSA, 25 °C.
Sequence of GST-integrin beta3 cytoplasmic tail (P05106 742-788): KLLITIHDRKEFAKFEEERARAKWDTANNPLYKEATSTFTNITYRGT
The target of a further experiment is paxillin 1–160 (human) (UniProt P49023). In words: SPR; paxillin 1–160 amine-coupled to CM5, talin subdomains (0–12 μM) flowed over; 50 mM sodium phosphate pH 6.8, 150 mM NaCl, 25 °C; talin-R1–R4 fitted by a two-state model.
Sequence of paxillin 1–160 (human) (P49023 1-160): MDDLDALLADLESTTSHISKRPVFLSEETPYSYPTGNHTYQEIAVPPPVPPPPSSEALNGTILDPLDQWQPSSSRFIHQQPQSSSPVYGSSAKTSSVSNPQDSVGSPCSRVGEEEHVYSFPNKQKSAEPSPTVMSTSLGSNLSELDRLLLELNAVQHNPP

Regarding “C-terminally ypet-tagged full-length talin WT mutant A680E; K687E [mouse] / kindlin-2 (endogenous, fibroblasts) [mouse (endogenous in talin^1/2dko fibroblasts)] chain 1 A680E, chain 1 K687E”, the ratio to parent in experiment [1] was 0.49.

Consider “C-terminally ypet-tagged full-length talin WT mutant A680E; K687E; T2126E; K2133E [mouse] / kindlin-2 (endogenous, fibroblasts) [mouse (endogenous in talin^1/2dko fibroblasts)] chain 1 A680E, chain 1 K687E, chain 1 T2126E, chain 1 K2133E”, for which, in experiment [1], the ratio to parent was 0.31.

“C-terminally ypet-tagged full-length talin WT mutant T2126E; K2133E [mouse] / kindlin-2 (endogenous, fibroblasts) [mouse (endogenous in talin^1/2dko fibroblasts)] chain 1 T2126E, chain 1 K2133E”: the ratio to parent in experiment [1] was 0.81.

Take “constitutively activated full-length talin mutant tlnM3 (M319A, T1767L, E1770K), P26039 1-2541”: in experiment [2], the Kd was determined as 1820 nM.

Consider “talin N-terminal head domain (talin-H) (domain or fragment)”, for which the dissociation constant Kd in experiment [3] is 29.7 nM.

“talin deletion mutant without C-terminal dimerization domain (from UniProt P26039 1-2482) (domain or fragment)” showed a dissociation constant Kd in experiment [3] of 36 nM.

In the experiment with paxillin 1–160 (human), talin-R1–R4 (domain or fragment) came in with a Kd of 153 nM and a stoichiometry N of 1.

Take talin-R11 (domain or fragment): the equilibrium dissociation constant (Kd) with paxillin 1–160 (human) was 12700 nM.
